Experimental data reported in patent publication US20250152717A1.

Target: KRAS-G12V8-16 peptide (…) presented by HLA-A11 (human)
Test: cell-based or functional assay

B1: TCR 11N4A (TCR)
TCR alpha: QQKNDDQQVKQNSPSLSVQEGRISILNCDYTNSMFDYFLWYKKYPAEGPTFLISISSIKDKNEDGRFTVFLNKSAKHLSLHIVPSQPGDSAVYFCAASGVSGNTPLVFGKGTRLSVIANIQNPDPAVYQLRDSKSSDKSVCLFTDFDSQTNVSQSKDSDVYITDKCVLDMRSMDFKSNSAVAWSNKSDFACANAFNNSIIPEDTFFPSPESSCDVKLVEKSFETDTNLNFQNLSVIGFRILLLKVAGFNLLMTLRLWSS
TCR beta: GVTQTPRYLIKTRGQQVTLSCSPISGHRSVSWYQQTPGQGLQFLFEYFSETQRNKGNFPGRFSGRQFSNSRSEMNVSTLELGDSALYLCASSVGTVEQYFGPGTRLTVTEDLKNVFPPEVAVFEPSEAEISHTQKATLVCLATGFYPDHVELSWWVNGKEVHSGVCTDPQPLKEQPALNDSRYCLSSRLRVSATFWQNPRNHFRCQVQFYGLSENDEWTQDRAKPVTQIVSAEAWGRADCGFTSESYQQGVLSATILYEILLGKATLYAVLVSALVLMAMVKRKDSRG
B1 gave a percent of TCR 11N4A-transduced T cells responding (CD137) to peptide of over 80%.
